According to publication PMC4788435 (2016):

B1: human NEK8-GFP wild type [human] / Flag-ANKS6 [not stated] (parent complex)
chain 1: MEKYERIRVVGRGAFGIVHLCLRKADQKLVIIKQIPVEQMTKEERQAAQNECQVLKLLNHPNVIEYYENFLEDKALMIAMEYAPGGTLAEFIQKRCNSLLEEETILHFFVQILLALHHVHTHLILHRDLKTQNILLDKHRMVVKIGDFGISKILSSKSKAYTVVGTPCYISPELCEGKPYNQKSDIWALGCVLYELASLKRAFEAANLPALVLKIMSGTFAPISDRYSPELRQLVLSLLSLEPAQRPPLSHIMAQPLCIRALLNLHTDVGSVRMRRAEKSVAPSNTGSRTTSVRCRGIPRGPVRPAIPPPLSSVYAWGGGLGTPLRLPMLNTEVVQVAAGRTQKAGVTRSGRLILWEAPPLGAGGGSLLPGAVEQPQPQFISRFLEGQSGVTIKHVACGDFFTACLTDRGIIMTFGSGSNGCLGHGSLTDISQPTIVEALLGYEMVQVACGASHVLALSTERELFAWGRGDSGRLGLGTRESHSCPQQVPMPPGQEAQRVVCGIDSSMILTVPGQALACGSNRFNKLGLDHLSLGEEPVPHQQVEEALSFTLLGSAPLDQEPLLSIDLGTAHSAAVTASGDCYTFGSNQHGQLGTNTRRGSRAPCKVQGLEGIKMAMVACGDAFTVAIGAESEVYSWGKGARGRLGRRDEDAGLPRPVQLDETHPYTVTSVSCCHGNTLLAVRSVTDEPVPP
chain 2: MGEGGLPPAFQLLLRACDQGDTETARRLLEPGAAEPAERGAEPEAGAEPAGAEVAGPGAAAAGAVGAPVPVDCSDEAGNTALQFAAAGGHEPLVRFLLRRGASVNSRNHYGWSALMQAARFGHVSVAHLLLDHGADVNAQNRLGASVLTVASRGGHLGVVKLLLEAGAFVDHHHPSGEQLGLGGSRDEPLDITALMAAIQHGHEAVVRLLMEWGADPNHAARTVGWSPLMLAALTGRLGVAQQLVEKGANPDHLSVLEKTAFEVALDCKHRDLVDYLDPLTTVRPKTDEEKRRPDIFHALKMGNFQLVKEIADEDPSHVNLVNGDGATPLMLAAVTGQLALVQLLVERHADVDKQDSVHGWTALMQATYHGNKEIVKYLLNQGADVTLRAKNGYTAFDLVMLLNDPDTELVRLLASVCMQVNKDKGRPSHQPPLPHSKVRQPWSIPVLPDDKGGLKSWWNRMSNRFRKLKLMQTLPRGLSSNQPLPFSDEPEPALDSTMRAAPQDKTSRSALPDAAPVTKDNGPGSTRGEKEDTLLTTMLRNGAPLTRLPSDKLKAVIPPFLPPSSFELWSSDRSRTRHNGKADPMKTALPQRASRGHPVGGGGTDTTPVRPVKFPSLPRSPASSANSGNFNHSPHSSGGSSGVGVSRHGGELLNRSGGSIDNVLSQIAAQRKKAAGLLEQKPSHRSSPVGPAPGSSPSELPASPAGGSAPVGKKLETSKRPPSGTSTTSKSTSPTLTPSPSPKGHTAESSVSSSSSHRQSKSSGGSSSGTITDEDELTGILKKLSLEKYQPIFEEQEVDMEAFLTLTDGDLKELGIKTDGSRQQILAAISELNAGKGRERQILQETIHNFHSSFESSASNTRAPGNSPCA

Variants of: B1
Test: co-immunoprecipitation (anti-GFP IP, western blot band quantification); HEK293T cell lysates co-expressing NEK8-GFP and Flag-ANKS6; parent: 1; read off a plot
chain 1 G580S showed a ratio to parent of roughly 0.97.
chain 1 R602W gave a ratio to parent of roughly 0.95.
Work on chain 1 T87A yielded a ratio to parent of roughly 0.42.
With chain 1 H425Y the ratio to parent was roughly 1.
